Data: patent publication US20260226152A1 (GlaxoSmithKline, published 2026)
Like-named read-outs stand apart in the source and are kept apart here.

T1: Human IL-23 (human, UniProt Q9NPF7 20-189; P29460 23-328)
T1 sequence 1: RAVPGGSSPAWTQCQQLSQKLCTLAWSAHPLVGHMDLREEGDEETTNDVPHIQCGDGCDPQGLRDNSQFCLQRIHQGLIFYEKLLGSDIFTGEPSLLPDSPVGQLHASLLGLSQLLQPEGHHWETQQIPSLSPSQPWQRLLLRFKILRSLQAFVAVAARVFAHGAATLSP
T1 sequence 2: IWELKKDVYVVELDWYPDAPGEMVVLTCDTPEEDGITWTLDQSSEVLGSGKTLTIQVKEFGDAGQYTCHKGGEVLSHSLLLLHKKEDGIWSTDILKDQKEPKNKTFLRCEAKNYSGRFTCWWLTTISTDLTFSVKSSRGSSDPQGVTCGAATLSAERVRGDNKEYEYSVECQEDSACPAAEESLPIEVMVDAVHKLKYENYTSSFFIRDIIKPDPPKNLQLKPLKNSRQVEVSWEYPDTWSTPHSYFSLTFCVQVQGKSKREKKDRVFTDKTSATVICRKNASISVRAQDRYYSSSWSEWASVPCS

T2: Human IL-18 (human, UniProt Q14116 37-193)
T2 sequence: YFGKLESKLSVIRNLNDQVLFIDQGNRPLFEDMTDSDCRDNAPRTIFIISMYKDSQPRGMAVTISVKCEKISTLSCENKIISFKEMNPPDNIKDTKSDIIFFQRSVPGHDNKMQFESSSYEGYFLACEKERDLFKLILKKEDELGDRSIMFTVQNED

T3: Cynomolgus monkey IL-18 (Rhesus monkey (identical to cynomolgus …, UniProt Q9BGI5 37-193))
T3 sequence: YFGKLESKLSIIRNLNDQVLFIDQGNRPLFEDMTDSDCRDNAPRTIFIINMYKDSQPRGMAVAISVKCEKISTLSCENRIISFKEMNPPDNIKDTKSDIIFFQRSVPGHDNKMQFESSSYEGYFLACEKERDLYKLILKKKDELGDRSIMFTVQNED


What was measured:
Human IL-23 [1] = target: T1, Human IL-23; experiment: cell-based or functional assay
Human IL-18 [2] = target: T2, Human IL-18; experiment: cell-based or functional assay
Cynomolgus monkey IL-18 [3] = target: T3, Cynomolgus monkey IL-18; experiment: cell-based or functional assay
Human IL-18 [4] = target: T2, Human IL-18; experiment: cell-based or functional assay; remark: listed apart in the source
Human IL-23 [5] = target: T1, Human IL-23; experiment: cell-based or functional assay; remark: listed apart in the source
Human IL-23 [6] = target: T1, Human IL-23; experiment: cell-based or functional assay; remark: listed apart in the source
Human IL-18 [7] = target: T2, Human IL-18; experiment: SPR (Biacore 8K/T200), antibody captured on Protein A/G, cytokine as analyte, 25 C, geometric mean of n=3-5
Protocol: (§1) A heterodimeric bsAb, alongside anti-IL-18 and anti-IL-23 common light chain control bispecific antibodies, were assessed for binding to human and cyno IL-18 and IL-23, using the Biacore 8K and T200 (Cytiva) surface plasmon resonance (SPR) instruments. All reagents were generated recombinantly in-house with the exception of Rhesus monkey IL-18 which was purchased from R&D systems (Cat #2548-RM-025/CF). Rhesus and cynomolgus monkey amino acid sequences are identical. Therefore, the protein will be referred to as cynomolgus monkey IL-18.
(§2) Heterodimeric bsAb, anti-IL-18 and anti-IL-23 common light chain bispecific control molecules were assessed for binding to recombinant human and cynomolgus monkey IL-18 and IL-23 using the Biacore 8K and T200 (Cytiva) SPR instruments. The antibodies were captured onto Protein A/G, which was immobilised onto flow cell 2 of 8 channels (Biacore 8K) or flow cells 2, 3 and 4 (Biacore T200) of a CM5 series S sensor chip by primary amine coupling. The IL-18 or IL-23 analytes were passed over the captured antibodies at varying concentrations between 0.04-25 nM. The association phase was for 240 seconds at 30 μl/min, followed by a dissociation step of up to 1200 seconds. A 0 nM (i.e., buffer alone) injection was used to double reference the binding curves. Regeneration of the chip surface between cycles was carried out using 50 mM NaOH. The assay was run at 25° C. in HBS-EP⁺ buffer. Biacore 8K control software version 3.0 was used to run the experiment. Data was analysed using Biacore 8K Insight evaluation software version 3.0. Biacore T200 control software version 1.0 was used to run the experiment. Data was analysed using Biacore T200 evaluation software version 2.0. Affinities and kinetics were determined using the 1:1 kinetic fit inherent to the software where possible. All affinity values generated using both instruments were combined to determine geometric mean values.

Cynomolgus monkey IL-18 [8] = target: T3, Cynomolgus monkey IL-18; experiment: as above
Protocol: as §1, §2

Human IL-23 [9] = target: T1, Human IL-23; experiment: as above
Protocol: as §1, §2

Cynomolgus monkey IL-23 = target: T4, Cynomolgus monkey IL-23 (cynomolgus monkey); experiment: as above
T4 construct: also called Cyno IL-23
Protocol: as §1, §2

Human IL-18 [10] = target: T2, Human IL-18; experiment: cell-based or functional assay; remark: listed apart in the source
Human IL-23 [11] = target: T1, Human IL-23; experiment: SPR (Biacore), antibody captured on Protein A/G, cytokine as analyte, 25 C
Protocol: as §1, §2

Human IL-18 [12] = target: T2, Human IL-18; experiment: SPR (Biacore), antibody captured on Protein A/G, cytokine as analyte, 25 C, 1:1 fit, n=1
Protocol: as §1, §2

Binder	IC50 (pM, Mean), neutralisation of human IL-18-induced IFNγ secretion by KG-1 cells (Human IL-18 [2])	pIC50 (GeoMean), neutralisation of human IL-18-induced IFNγ secretion by KG-1 cells (Human IL-18 [2])	IC50 (pM, Mean), neutralisation of cynomolgus IL-18-induced IFNγ secretion by KG-1 cells (Cynomolgus monkey IL-18 [3])	pIC50 (GeoMean), neutralisation of cynomolgus IL-18-induced IFNγ secretion by KG-1 cells (Cynomolgus monkey IL-18 [3])	IC50 nM, inhibition of LPS + IL12-induced IFN-γ in human whole blood (Human IL-18 [4])	pIC50, inhibition of LPS + IL12-induced IFN-γ in human whole blood (Human IL-18 [4])	Kd (Human IL-18 [7])	Kd (Cynomolgus monkey IL-18 [8])	binding result (Human IL-23 [11])	other results
Heterodimeric bsAb 4 (bispecific antibody, human IgG1, kappa, Het-mAb format: anti-IL-23 mAb (risankizumab) on ZA and anti-IL-18 mAb on ZB, with Fc heterodimerisation, silencing and half-life extending mutations; Stably expressed in CHO cells; also called anti-IL-23xIL-18 HETmAb) heavy 1: QVQLVQSGAEVKKPGSSVKVSCKASGYTFTDQTIHWMRQAPGQGLEWIGYIYPRDDSPKYNENFKGKVTITADKSTSTAYMELSSLRSEDTAVYYCAIPDRSGYAWFIYWGQGTLVTVSSASTKGPSVFPLAPSSKSTSGGTAALGCRVKDYFPEPVTVSWNSGALTSGVHTFPAVLQSSGLYSLSSVVTVPSSSLGTQTYICNVNHKPSNTKVDKKVEPKSCDKTHTCPPCPAPELAGAPSVFLFPPKPKDTLYITREPEVTCVVVDVSHEDPEVKFNWYVDGVEVHNAKTKPREEQYNSTYRVVSVLTVLHQDWLNGKEYKCKVSNKALPAPIEKTISKAKGQPREPQVYVYPPSRDELTKNQVSLTCLVKGFYPSDIAVEWESNGQPENNYKTTPPVLDSDGSFALVSKLTVDKSRWQQGNVFSCSVMHEALHNHYTQKSLSLSPGK light 1: DIQMTQSPSSLSASVGDRVTITCKASRDVAIAVAWYQQKPGKVPKLLIYWASTRHTGVPSRFSGSGSRTDFTLTISSLQPEDVADYFCHQYSSYPFTFGSGTKLEIKRTVAAPSVFIFPPSDEELKSGTASVECLLNNFYPREAKVQWKVDNALQSGNSQESVTEQDSKDSTYSLSSTLTLSKADYEKHKVYACEVTHQGLSSPVTKSFNRGEC heavy 2: QVQLVQSGAEVKKPGASVKVSCKVSGEISTGYYFHWVRQAPGKGLEWMGRIDPEDDSTKYAERFKDRVTMTEDTSTDTAYMELSSLRSEDTAVYYCTTWRIYRDSSGRPFYVMDAWGQGTLVTVSSASTKGPSVFPLAPSSKSTSGGTAALGCEVTDYFPEPVTVSWNSGALTSGVHTFPAVLESSGLYSLSSVVTVPSSSLGTQTYICNVNHKPSNTKVDKKVEPKSCDKTHTCPPCPAPELAGAPSVFLFPPKPKDTLYITREPEVTCVVVDVSHEDPEVKFNWYVDGVEVHNAKTKPREEQYNSTYRVVSVLTVLHQDWLNGKEYKCKVSNKALPAPIEKTISKAKGQPREPQVYVLPPSRDELTKNQVSLLCLVKGFYPSDIAVEWESNGQPENNYLTWPPVLDSDGSFFLYSKLTVDKSRWQQGNVFSCSVMHEALHNHYTQKSLSLSPGK light 2: DIQMTQSPSSVSASVGDRVTITCLASEDIYTYLTWYQQKPGKAPKLLIYGANKLQDGVPSRFSGSGSGTDYTLTISSLQPEDFATYYCLQGSKFPLTFGQGTKLEIKRTVAAPSVFIFPPSDERLKSGTASVVCLLNNFYPREAKVQWKVDNALQSGNSQESVTEQDSKDSTYSLSSRLTLSKADYEKHKVYACEVTHQGLSSPVTKSFNRGEC	115 pM	9.94	97.7 pM	10	10.5 nM	8	35 pM	68 pM	–	IC50 pM (Geomean), neutralisation of human IL-23-induced pSTAT3 in DB cells (MSD) (Human IL-23 [1]): 58.9 pM; pIC50 (Geomean), neutralisation of human IL-23-induced pSTAT3 in DB cells (MSD) (Human IL-23 [1]): 10.2; Fold change (from IL-18 control 1) of IC50, LPS + IL12-induced IFN-γ in human whole blood (Human IL-18 [4]): 1.9 fold; Fold change (from anti-IL-23, IL-23 control 1) of IC50, IL-23-induced pSTAT3 in T cells of human whole blood (Human IL-23 [5]): 2.42 fold; IC50, inhibition of IL-23-induced pSTAT3 in T cells of human whole blood (Human IL-23 [5]): 395 pM; pIC50, inhibition of IL-23-induced pSTAT3 in T cells of human whole blood (Human IL-23 [5]): 9.4; Fold change (from anti-IL-23, IL-23 control 1) of IC50, IL-23-induced mouse IL-17A in mouse splenocytes (Human IL-23 [6]): 2.67 fold; IC50 pM, inhibition of human IL-23-induced mouse IL-17A secretion in mouse splenocytes (Human IL-23 [6]): 111 pM; pIC50 (M), inhibition of human IL-23-induced mouse IL-17A secretion in mouse splenocytes (Human IL-23 [6]): 10; Kd (Human IL-23 [9]): 297 pM; Kd (Cynomolgus monkey IL-23): 162 pM
IL-18 control 5 (antibody, V domains shown, Anti-IL-18 mAb plus Het-mAb Fc mutations of Heterodimeric bsAbs 1-4 and silencing (LAGA) mutations) VH: QVQLVQSGAEVKKPGASVKVSCKVSGEISTGYYFHWVRQAPGKGLEWMGRIDPEDDSTKYAERFKDRVTMTEDTSTDTAYMELSSLRSEDTAVYYCTTWRIYRDSSGRPFYVMDAWGQGTLVTVSS VL: DIQMTQSPSSVSASVGDRVTITCLASEDIYTYLTWYQQKPGKAPKLLIYGANKLQDGVPSRFSGSGSGTDYTLTISSLQPEDFATYYCLQGSKFPLTFGQGTKLEIK	–	–	–	–	–	–	–	–	no binding (tested: 0.04-25 nM analyte)	IC50 (pM, Mean), neutralisation of human IL-18-induced IFNγ secretion by KG-1 cells (Human IL-18 [10]): 52.5 pM; pIC50 (GeoMean), neutralisation of human IL-18-induced IFNγ secretion by KG-1 cells (Human IL-18 [10]): 10.3; Kd (Human IL-18 [12]): < 10 pM
IL-18 control 1 (antibody, V domains shown, Anti-IL-18 mAb plus Het-mAb Fc mutations of Heterodimeric bsAbs 1-4, silencing (LAGA) and half-life extending (YTE) mutations; also called anti-IL-18 control 1) VH: QVQLVQSGAEVKKPGASVKVSCKVSGEISTGYYFHWVRQAPGKGLEWMGRIDPEDDSTKYAERFKDRVTMTEDTSTDTAYMELSSLRSEDTAVYYCTTWRIYRDSSGRPFYVMDAWGQGTLVTVSS VL: DIQMTQSPSSVSASVGDRVTITCLASEDIYTYLTWYQQKPGKAPKLLIYGANKLQDGVPSRFSGSGSGTDYTLTISSLQPEDFATYYCLQGSKFPLTFGQGTKLEIK	52.5 pM	10.3	53.7 pM	10.3	5.5 nM	8.3	67 pM	64 pM	no binding (tested: 0.04-25 nM analyte)	–
